Here are results for four molecules from patent US20210238276A1 (INTEGRAL MOLECULAR, published 2021).

What all share (assay): flow cytometry, alanine-scan library in HEK-293T
Background: A flow cytometer gives signals particle by particle.

One assay deals with T1, hsGLUT4 Y159A (human, UniProt P14672 1-509).
T1 sequence: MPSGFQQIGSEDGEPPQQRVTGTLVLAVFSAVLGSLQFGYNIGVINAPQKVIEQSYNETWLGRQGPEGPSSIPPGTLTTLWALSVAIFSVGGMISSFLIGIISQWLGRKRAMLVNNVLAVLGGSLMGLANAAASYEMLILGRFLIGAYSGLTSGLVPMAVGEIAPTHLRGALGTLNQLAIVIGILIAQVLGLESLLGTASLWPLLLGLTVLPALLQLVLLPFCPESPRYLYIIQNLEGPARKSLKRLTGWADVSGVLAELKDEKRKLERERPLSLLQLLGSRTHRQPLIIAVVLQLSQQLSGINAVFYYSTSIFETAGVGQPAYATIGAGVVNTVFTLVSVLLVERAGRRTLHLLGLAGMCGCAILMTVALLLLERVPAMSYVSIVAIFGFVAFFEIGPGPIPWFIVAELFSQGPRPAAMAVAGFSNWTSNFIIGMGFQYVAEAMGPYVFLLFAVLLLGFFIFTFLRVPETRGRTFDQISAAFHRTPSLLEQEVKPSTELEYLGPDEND
The gist of the method: (§1)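 HEK-293T cells expressing individual GLUT4 alanine mutants were stained 48 h post-transfection with anti-GLUT4 scFv MAbs (2 μg/ml), then biotinylated secondary and streptavidin-PerCP, and read by high-throughput flow cytometry. Where used, cytochalasin B (10 uM final) was given for 30 min before and during primary antibody staining.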

A further assay has as its target T2, hsGLUT4 E345A (human, UniProt P14672 1-509).
T2 sequence: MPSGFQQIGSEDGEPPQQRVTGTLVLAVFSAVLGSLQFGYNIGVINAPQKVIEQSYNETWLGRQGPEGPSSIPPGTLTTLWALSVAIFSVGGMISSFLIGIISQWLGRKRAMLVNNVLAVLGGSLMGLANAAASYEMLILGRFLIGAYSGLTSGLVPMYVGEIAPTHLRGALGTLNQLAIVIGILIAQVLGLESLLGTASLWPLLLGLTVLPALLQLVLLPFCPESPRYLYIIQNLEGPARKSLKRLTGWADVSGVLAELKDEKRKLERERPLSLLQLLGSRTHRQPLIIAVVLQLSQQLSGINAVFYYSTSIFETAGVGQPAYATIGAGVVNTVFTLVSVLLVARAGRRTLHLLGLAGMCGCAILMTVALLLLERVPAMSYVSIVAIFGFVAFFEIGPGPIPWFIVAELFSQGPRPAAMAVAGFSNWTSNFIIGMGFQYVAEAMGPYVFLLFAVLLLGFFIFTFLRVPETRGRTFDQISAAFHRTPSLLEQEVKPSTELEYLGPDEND
The gist of the method:
as §1

The target in another assay is T3, hsGLUT4 Y502A (human, UniProt P14672 1-509).
T3 sequence: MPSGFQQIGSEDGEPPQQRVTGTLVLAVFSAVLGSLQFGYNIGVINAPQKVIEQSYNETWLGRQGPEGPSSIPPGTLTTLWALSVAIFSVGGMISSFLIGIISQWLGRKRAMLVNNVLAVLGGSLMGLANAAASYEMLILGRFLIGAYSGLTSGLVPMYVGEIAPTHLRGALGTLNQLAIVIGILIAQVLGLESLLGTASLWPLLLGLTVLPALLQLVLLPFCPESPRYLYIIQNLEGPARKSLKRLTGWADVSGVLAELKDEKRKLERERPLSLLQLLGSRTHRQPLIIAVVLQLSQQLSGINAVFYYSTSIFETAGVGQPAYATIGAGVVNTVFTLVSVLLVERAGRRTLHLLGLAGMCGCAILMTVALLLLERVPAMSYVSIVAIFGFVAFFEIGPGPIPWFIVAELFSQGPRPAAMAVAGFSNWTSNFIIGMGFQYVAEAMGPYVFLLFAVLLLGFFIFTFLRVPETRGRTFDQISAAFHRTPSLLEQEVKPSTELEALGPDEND
The gist of the method:
as §1

Another assay has as its target T4, hsGLUT4 R169A (human, UniProt P14672 1-509).
T4 sequence: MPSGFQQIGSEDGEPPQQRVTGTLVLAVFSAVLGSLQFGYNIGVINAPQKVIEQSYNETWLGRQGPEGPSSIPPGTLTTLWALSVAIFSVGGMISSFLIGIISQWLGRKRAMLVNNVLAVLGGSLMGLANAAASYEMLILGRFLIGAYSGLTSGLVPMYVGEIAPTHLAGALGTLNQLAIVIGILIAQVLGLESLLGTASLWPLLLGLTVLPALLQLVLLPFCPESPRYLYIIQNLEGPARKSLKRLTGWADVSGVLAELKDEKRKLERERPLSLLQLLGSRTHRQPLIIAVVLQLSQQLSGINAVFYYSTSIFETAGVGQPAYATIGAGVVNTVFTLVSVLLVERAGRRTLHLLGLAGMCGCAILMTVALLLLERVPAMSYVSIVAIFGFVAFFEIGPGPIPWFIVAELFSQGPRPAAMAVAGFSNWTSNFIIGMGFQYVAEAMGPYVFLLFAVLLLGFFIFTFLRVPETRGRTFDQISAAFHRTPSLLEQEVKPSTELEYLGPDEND
The gist of the method:
as §1

Consider 1F8 (antibody), for which the % of binding to wild type GLUT4 with hsGLUT4 Y159A came to 96%; with hsGLUT4 E345A it was 93%; with hsGLUT4 Y502A, 51%; in the assay with hsGLUT4 R169A it was 84%.

B1: AB101 (scFv)
scFv: ALTQPSSVSANPGETVKITCSGSSNSYGWYQQKSPGSAPVTVIYYNDKRPSDIPSRFSGSKSDSTHTLTITGVRAEDEAVYFCGSYDSTYVGIFGAGTTLTVLGQSSRSSGGGGSSGGGGSAVTLDESGGGLQTPGGTLSLVCKASGFTFSSNAMGWVRQAPGKGLEWVAGISSDGRYTKYGSAVKGRATISRDNGQSTVRLQLNNLRAEDTGTYFCAKAFGNNYRRIYAGQIDAWGHGTEVIVSS
notes: Chicken-derived clone used as a control; the four lead clones were tested as scFv-human IgG1 Fc; also called MAb AB101
As for B1, the “% of binding to wild type GLUT4” value in the assay with hsGLUT4 Y159A is 122%; in the assay with hsGLUT4 E345A, 78%; with hsGLUT4 Y502A, 4%; in the assay with hsGLUT4 R169A, 119%.

B2: AB111 (Fc fusion)
scFv: ALTQPSSVSANPGETVKITCSGSGSWYGWFQQKSPGSAPVTVIYSNDKRPSDIPSRFSGSKSGSTSTLTITGVQVEDEAVYYCGNWDIFGAGTTLTVLGQSSRSSGGGGSSGGGGSAVTLDESGGGLQTPGGALSLVCKASGFTFSSHGMGWVRQAPGKGLEWVASISTGRYTFYAPAVKGRATISRDNGQSTVRLQLNNLRAEDTATYYCTKCAGLNGCGGGEIDAWGHGTEVIVSS
notes: Bivalent scFv-Fc; also called MAb AB111; not shown: Fc fragment of human IgG1, cloned in frame with the scFv
For the molecule B2, the “% of binding to wild type GLUT4” value in the assay with hsGLUT4 Y159A was 88%; with hsGLUT4 E345A it was 200%; with hsGLUT4 Y502A it was 169%; with hsGLUT4 R169A, 97%.

B3: AB108 (Fc fusion)
scFv: ALTQPSSVSANLGGTVKITCSGSSGSYGWYQQKAPGSAPVTLIYRNDKRPSDIPSRFSGSESGSTGTLTITGVQAEDEAVYFCGGYDSSAGYAAFGAGTTLTVLGQSSRSSGGGGSSGGGGSAVTLDESGGGLQTPGGALSLVCKASGFTFSSHGMGWVRQAPGKGLEWVGSISTGRYTFYAPAVKGRATISRDNGQSTLRLQLNNLRAEDTGTYYCTKCAGLNGCGGGEIDAWGHGTEVIVSS
notes: Bivalent scFv-Fc; also called MAb AB108; not shown: Fc fragment of human IgG1, cloned in frame with the scFv
As for B3, the “% of binding to wild type GLUT4” value with hsGLUT4 Y159A came out at 46%; in the assay with hsGLUT4 E345A, 88%; with hsGLUT4 Y502A, 94%; in the assay with hsGLUT4 R169A it was 108%.
